From patent US20260242735A1 (UNIVERSIT T BASEL, published 2026)

B1: Refmab #4 (antibody, V domains shown)
VH: QVQLVQSGAEVKKPGESVKVSCKASGYTFTNYGMNWVKQAPGQGLEWMGWINTYTGEPTYADKFQGRVTMTTDTSTSTAYMEIRNLGGDDTAVYYCARWSWSDGYYVYFDYWGQGTSVTVSS
VL: DIVMTQSPDSLTVSLGERTTINCKSSQSVLDSSTNKNSLAWYQQKPGQPPKLLLSWASTRESGIPDRFSGSGSGTDFTLTIDSPQPEDSATYYCQQSAHFPITFGQGTRLEIK
notes: In the alanine scan antibodies were used as IgG or Fab
B2: Refmab #2 (antibody, V domains shown)
VH: QVQLVQSGAEVKKPGSSVKVSCKASGGTFSDYAISWVRQAPGQGLEWMGRIIPILGVADYAQKFQGRVTITADKSTRTAYMELSSLRSEDTAVYYCARNWADAFDIWGQGTMVTVSS
VL: DIQLTQSPSSLSASVGDRVTITCRASQGISSVLAWYQQKPGKAPKLLIYDASSLESGVPSRFSGSGSGTDFTLTISSLQPEDFATYYCQQFDSSITFGQGTKLEIK
notes: as for B1
B3: Refmab #1 (antibody, V domains shown)
VH: EVQLVQSGAEVKKPGSSVKVSCKASGYTITDSNIHWVRQAPGQSLEWIGYIYPYNGGTDYNQKFKNRATLTVDNPTNTAYMELSSLRSEDTAFYYCVNGNPWLAYWGQGTLVTVSS
VL: DIQLTQSPSTLSASVGDRVTITCRASESLDNYGIRFLTWFQQKPGKAPKLLMYAASNQGSGVPSRFSGSGSGTEFTLTISSLQPDDFATYYCQQTKEVPWSFGQGTKVEVK
notes: In the alanine scan antibodies were used as IgG or Fab; also called hP67.6
B4: Refmab #1 (antibody, V domains shown)
VH: EVQLVQSGAEVKKPGSSVKVSCKASGYTITDSNIHWVRQAPGQSLEWIGYIYPYNGGTDYNQKFKNRATLTVDNPTNTAYMELSSLRSEDTAFYYCVNGNPWLAYWGQGTLVTVSS
VL: DIQLTQSPSTLSASVGDRVTITCRASESLDNYGIRFLTWFQQKPGKAPKLLMYAASNQGSGVPSRFSGSGSGTEFTLTISSLQPDDFATYYCQQTKEVPWSFGQGTKVEVK
notes: The alanine scan used IgG or Fab; also called hP67.6
B5: Refmab #3 (antibody, V domains shown)
VH: QVQLVQSGAEVKKPGSSVKVSCKASGYTFTDYNMHWVRQAPGQGLEWIGYIYPYNGGTGYNQKFKSKATITADESTNTAYMELSSLRSEDTAVYYCARGRPAMDYWGQGTLVTVSS
VL: DIQMTQSPSSLSASVGDRVTITCRASESVDNYGISFMNWFQQKPGKAPKLLIYAASNQGSGVPSRFSGSGSGTDFTLTISSLQPDDFATYYCQQSKEVPWTFGQGTKVEIK
notes: as for B1

How the values were obtained:
Test in all cases: alanine scan, flow cytometry, HEK293-T;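 further: antibody binding to each alanine-substituted CD33 mutant expressed transiently in HEK293-T, read as fluorescence minus background, mean of duplicates, relative to wild-type CD33 set as 100%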
human CD33 Q204A = human CD33 Q204A (human, UniProt P20138 18-364)
human CD33 V234A = human CD33 V234A (human, UniProt P20138 18-364)
human CD33 A219S = human CD33 A219S (human, UniProt P20138 18-364)
human CD33 S195A = human CD33 S195A (human, UniProt P20138 18-364)
human CD33 H206A = human CD33 H206A (human, UniProt P20138 18-364)
human CD33 T208A = human CD33 T208A (human, UniProt P20138 18-364)
human CD33 T223A = human CD33 T223A (human, UniProt P20138 18-364)
human CD33 A168S = human CD33 A168S (human, UniProt P20138 18-364)
human CD33 S178A = human CD33 S178A (human, UniProt P20138 18-364)
human CD33 D205A = human CD33 D205A (human, UniProt P20138 18-364)
human CD33 P175A = human CD33 P175A (human, UniProt P20138 18-364)
human CD33 L197A = human CD33 L197A (human, UniProt P20138 18-364)
human CD33 E224A = human CD33 E224A (human, UniProt P20138 18-364)
human CD33 N209A = human CD33 N209A (human, UniProt P20138 18-364)
human CD33 P184A = human CD33 P184A (human, UniProt P20138 18-364)
human CD33 T191A = human CD33 T191A (human, UniProt P20138 18-364)
human CD33 I198A = molecular target: T1, human CD33 I198A (human, UniProt P20138 18-364)
T1 construct: the '-,' is not explained

human CD33 I281A = human CD33 I281A (human, UniProt P20138 18-364)
human CD33 C274A = human CD33 C274A (human, UniProt P20138 18-364)
human CD33 G245A = human CD33 G245A (human, UniProt P20138 18-364)
human CD33 V282A = human CD33 V282A (human, UniProt P20138 18-364)
human CD33 K250A = human CD33 K250A (human, UniProt P20138 18-364)
human CD33 A293S = human CD33 A293S (human, UniProt P20138 18-364)
human CD33 H259A = human CD33 H259A (human, UniProt P20138 18-364)
human CD33 T284A = human CD33 T284A (human, UniProt P20138 18-364)
human CD33 V267A = human CD33 V267A (human, UniProt P20138 18-364)
human CD33 Q251A = human CD33 Q251A (human, UniProt P20138 18-364)
human CD33 L273A = human CD33 L273A (human, UniProt P20138 18-364)
human CD33 A261S = human CD33 A261S (human, UniProt P20138 18-364)
human CD33 H300A = human CD33 H300A (human, UniProt P20138 18-364)
human CD33 S248A = human CD33 S248A (human, UniProt P20138 18-364)
human CD33 H310A = human CD33 H310A (human, UniProt P20138 18-364)
human CD33 G264A = human CD33 G264A (human, UniProt P20138 18-364)
human CD33 L270A = human CD33 L270A (human, UniProt P20138 18-364)
human CD33 T292A = human CD33 T292A (human, UniProt P20138 18-364)
human CD33 G304A = human CD33 G304A (human, UniProt P20138 18-364)

Chain of human CD33 A219S (P20138 18-364 A219S limits assumed): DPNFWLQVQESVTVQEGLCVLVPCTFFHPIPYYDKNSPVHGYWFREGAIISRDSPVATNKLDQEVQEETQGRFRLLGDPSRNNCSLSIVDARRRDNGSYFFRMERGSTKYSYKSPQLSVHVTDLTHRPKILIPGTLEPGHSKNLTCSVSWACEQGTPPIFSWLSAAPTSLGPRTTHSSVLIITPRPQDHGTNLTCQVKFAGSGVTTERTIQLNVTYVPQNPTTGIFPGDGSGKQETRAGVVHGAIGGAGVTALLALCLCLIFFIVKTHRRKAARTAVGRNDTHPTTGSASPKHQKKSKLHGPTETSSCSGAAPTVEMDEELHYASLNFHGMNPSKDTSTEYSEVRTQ
Chain of human CD33 N209A (P20138 18-364 N209A limits assumed): as the sequence (P20138 18-364 A219S limits assumed) above, with N192A, S202A counted along it
Chain of human CD33 T208A (P20138 18-364 T208A limits assumed): as the sequence (P20138 18-364 A219S limits assumed) above, with T191A, S202A counted along it
Chain of human CD33 P175A (P20138 18-364 P175A limits assumed): as the sequence (P20138 18-364 A219S limits assumed) above, with P158A, S202A counted along it
Chain of human CD33 T191A (P20138 18-364 T191A limits assumed): as the sequence (P20138 18-364 A219S limits assumed) above, with T174A, S202A counted along it
Chain of human CD33 L197A (P20138 18-364 L197A limits assumed): as the sequence (P20138 18-364 A219S limits assumed) above, with L180A, S202A counted along it
Chain of human CD33 A168S (P20138 18-364 A168S limits assumed): as the sequence (P20138 18-364 A219S limits assumed) above, with A151S, S202A counted along it
Chain of human CD33 Q204A (P20138 18-364 Q204A limits assumed): as the sequence (P20138 18-364 A219S limits assumed) above, with Q187A, S202A counted along it
Chain of human CD33 P184A (P20138 18-364 P184A limits assumed): as the sequence (P20138 18-364 A219S limits assumed) above, with P167A, S202A counted along it
Chain of human CD33 S178A (P20138 18-364 S178A limits assumed): as the sequence (P20138 18-364 A219S limits assumed) above, with S161A, S202A counted along it
Chain of human CD33 T223A (P20138 18-364 T223A limits assumed): as the sequence (P20138 18-364 A219S limits assumed) above, with S202A, T206A counted along it
Chain of human CD33 H206A (P20138 18-364 H206A limits assumed): as the sequence (P20138 18-364 A219S limits assumed) above, with H189A, S202A counted along it
Chain of human CD33 D205A (P20138 18-364 D205A limits assumed): as the sequence (P20138 18-364 A219S limits assumed) above, with D188A, S202A counted along it
T1 sequence (P20138 18-364 I198A limits assumed): as the sequence (P20138 18-364 A219S limits assumed) above, with I181A, S202A counted along it

Binder | Mean % WT Binding (human CD33 Q204A) [%] | Mean % WT Binding (human CD33 V234A) [%] | Mean % WT Binding (human CD33 A219S) [%] | Mean % WT Binding (human CD33 S195A) [%] | Mean % WT Binding (human CD33 H206A) [%] | Mean % WT Binding (human CD33 T208A) [%] | Mean % WT Binding (human CD33 T223A) [%] | Mean % WT Binding (human CD33 A168S) [%] | Mean % WT Binding (human CD33 S178A) [%] | Mean % WT Binding (human CD33 D205A) [%] | Mean % WT Binding (human CD33 P175A) [%] | Mean % WT Binding (human CD33 L197A) [%] | Mean % WT Binding (human CD33 E224A) [%] | Mean % WT Binding (human CD33 N209A) [%] | Mean % WT Binding (human CD33 P184A) [%] | Mean % WT Binding (human CD33 T191A) [%] | Mean % WT Binding (human CD33 I198A) [%] | further results
B1 | 99.8 | 107 | 112 | 112 | 97.7 | 108 | 106 | 99.9 | 101 | 0.1 | 106 | 95.3 | 107 | 88.1 | 79.4 | 95.1 | 94.4 | 
B2 | 112 | 117 | 117 | 119 | 110 | 117 | 126 | 110 | 113 | 2.8 | 103 | 125 | 102 | 104 | 111 | 114 | 114 | 
B3 | 93.7 | 85.8 | 104 | 86.9 | 98.8 | 101 | 103 | 88.4 | 94 | 1.6 | 89.4 | 95.5 | 95.4 | 92.1 | 82.9 | 91.4 | 86.7 | 
B4 |  |  |  |  |  |  |  |  |  |  |  |  |  |  |  |  |  | Mean % WT Binding (human CD33 I281A): 85 % WT binding; Mean % WT Binding (human CD33 C274A): 88.4 % WT binding; Mean % WT Binding (human CD33 G245A): 84.3 % WT binding; Mean % WT Binding (human CD33 V282A): 109 % WT binding; Mean % WT Binding (human CD33 K250A): 86.7 % WT binding; Mean % WT Binding (human CD33 A293S): 90.6 % WT binding; Mean % WT Binding (human CD33 H259A): 97.4 % WT binding; Mean % WT Binding (human CD33 T284A): 92.8 % WT binding; Mean % WT Binding (human CD33 V267A): 88.3 % WT binding; Mean % WT Binding (human CD33 Q251A): 98.8 % WT binding; Mean % WT Binding (human CD33 L273A): 110 % WT binding; Mean % WT Binding (human CD33 A261S): 84.1 % WT binding; Mean % WT Binding (human CD33 H300A): 76.5 % WT binding; Mean % WT Binding (human CD33 S248A): 88.4 % WT binding; Mean % WT Binding (human CD33 H310A): 97.4 % WT binding; Mean % WT Binding (human CD33 G264A): 95 % WT binding; Mean % WT Binding (human CD33 L270A): 102 % WT binding; Mean % WT Binding (human CD33 T292A): 89.5 % WT binding; Mean % WT Binding (human CD33 G304A): 104 % WT binding
B5 | 126 | 88.7 | 113 | 95.2 | 97.3 | 83.6 | 93.5 | 99.2 | 112 | 8.1 | 106 | 91.4 | 83.2 | 91.7 | 103 | 80 | 91.2 | 
